{"source": "paper PMC7491322", "about": "“Molecular basis for the distinct cellular functions of the Lsm1–7 and Lsm2–8 complexes”", "binders": {"B1": {"name": "cyclic phosphate oligoU RNA (Lsm1-7 assays) (ssRNA)", "RNA": "ACCCAUUUUU", "modifications": "2',3' cyclic phosphate"}, "B2": {"name": "UUUUU-3'-OH (ssRNA)", "RNA": "UUUUU"}, "B3": {"name": "U6 3' tail, 3'-OH (ssRNA)", "RNA": "ACCCAUUUUU"}, "B4": {"name": "UUUUUA (ssRNA)", "RNA": "UUUUUA"}, "B5": {"name": "UUUUUACCCCC (ssRNA)", "RNA": "UUUUUACCCCC"}, "B6": {"name": "U6 3' tail, 2',3' cyclic phosphate (ssRNA)", "RNA": "ACCCAUUUUU", "modifications": "2',3' cyclic phosphate"}, "B7": {"name": "AUUUUG (ssRNA)", "RNA": "AUUUUG"}, "B8": {"name": "U14A (ssRNA)", "RNA": "UUUUUUUUUUUUUUA"}, "B9": {"name": "U13AA (ssRNA)", "RNA": "UUUUUUUUUUUUUAA"}, "B10": {"name": "U6 3' tail, 3' phosphate (ssRNA)", "RNA": "ACCCAUUUUU", "modifications": "3' phosphate"}, "B11": {"name": "3' monoadenylated oligoU RNA (ssRNA)", "RNA": "ACCCAUUUUUA"}, "B12": {"name": "UUUUU>p (ssRNA)", "RNA": "UUUUU", "modifications": "2',3' cyclic phosphate"}, "B13": {"name": "A15 (ssRNA)", "RNA": "AAAAAAAAAAAAAAA"}, "B14": {"name": "U15 (ssRNA)", "RNA": "UUUUUUUUUUUUUUU"}, "B15": {"name": "5' stem-loop RNA with UUUUA site (structured_RNA)", "RNA": "GGCACUUCGGUGCCCCCCAUUUUA"}, "B16": {"name": "CCCCCUUUUUA (ssRNA)", "RNA": "CCCCCUUUUUA"}}, "key": {"Lsm1-7 [1]": {"target": "T1, Lsm1-7 (Schizosaccharomyces pombe, UniProt P87173;O94408;Q9Y7M4;O14352;O42978;Q9UUI1;O74499 …)", "assay": "fluorescence polarization; FP: 100 mM NaCl, 20 mM Tris pH 8.2 (final ~8), 10 mM MgCl2, 1 mM TCEP, 1 mM Na azide, 0.1 mg/mL each tRNA, BSA and heparin; temperature not stated; 1 nM RNA final; Hill fixed at 1", "details": "protein: recombinant; tags: Lsm4 C-term strep-II (as for Lsm2-8); Lsm7 untagged; GST (Lsm3) and MBP (Lsm6) with TEV sites, TEV treated; copies: 1;1;1;1;1;1;1; label: 5'-FAM; single-stranded"}, "Lsm1-7 (Lsm5 N66A/N68A)": {"target": "Lsm1-7 (Lsm5 N66A/N68A) (Schizosaccharomyces pombe, UniProt P87173;O94408;Q9Y7M4;O14352;O42978;Q9UUI1;O74499 …, N66A;N68A;Lsm5)", "assay": "fluorescence polarization; FP: 100 mM NaCl, 20 mM Tris pH 8.2 (final ~8), 10 mM MgCl2, 1 mM TCEP, 1 mM Na azide, 0.1 mg/mL each tRNA, BSA and heparin; temperature not stated; 1 nM RNA final; Hill fixed at 1", "details": "protein: recombinant; tags: as P2; copies: 1;1;1;1;1;1;1; label: 5'-FAM; single-stranded"}, "Lsm2-8 [2]": {"target": "T2, Lsm2-8 (Schizosaccharomyces pombe, UniProt O94408;Q9Y7M4;O14352;O42978;Q9UUI1;O74499;O74483 …)", "assay": "X-ray crystallography; 1.9 Å; FP: 100 mM NaCl, 20 mM Tris pH 8.2 (final ~8), 10 mM MgCl2, 1 mM TCEP, 1 mM Na azide, 0.1 mg/mL each tRNA, BSA and heparin; temperature not stated; 1 nM RNA final; Hill fixed at 1", "details": "protein: recombinant; tags: Lsm4 C-term strep-II; Lsm7 C-term His6; GST (Lsm3) and MBP (Lsm6) with TEV sites, TEV treated; copies: 1;1;1;1;1;1;1; single-stranded"}, "Lsm2-8 [3]": {"target": "T2, Lsm2-8", "assay": "fluorescence polarization; FP: 100 mM NaCl, 20 mM Tris pH 8.2 (final ~8), 10 mM MgCl2, 1 mM TCEP, 1 mM Na azide, 0.1 mg/mL each tRNA, BSA and heparin; temperature not stated; 1 nM RNA final; Hill fixed at 1", "details": "protein: recombinant; tags: Lsm4 C-term strep-II; Lsm7 C-term His6; GST (Lsm3) and MBP (Lsm6) with TEV sites, TEV treated; copies: 1;1;1;1;1;1;1; label: 5'-FAM; single-stranded"}, "Lsm1Δ56C-7 [4]": {"target": "T3, Lsm1Δ56C-7 (Schizosaccharomyces pombe, UniProt P87173;O94408;Q9Y7M4;O14352;O42978;Q9UUI1;O74499 …)", "assay": "X-ray crystallography; 1.8 Å; FP: 100 mM NaCl, 20 mM Tris pH 8.2 (final ~8), 10 mM MgCl2, 1 mM TCEP, 1 mM Na azide, 0.1 mg/mL each tRNA, BSA and heparin; temperature not stated; 1 nM RNA final; Hill fixed at 1", "details": "protein: recombinant; tags: as P2; copies: 1;1;1;1;1;1;1; single-stranded"}, "Lsm1-7 [5]": {"target": "T1, Lsm1-7", "assay": "fluorescence polarization; FP: 100 mM NaCl, 20 mM Tris pH 8.2 (final ~8), 10 mM MgCl2, 1 mM TCEP, 1 mM Na azide, 0.1 mg/mL each tRNA, BSA and heparin; temperature not stated; 1 nM RNA final; Hill fixed at 1", "details": "protein: recombinant, tags: Lsm4 C-term strep-II (as for Lsm2-8), Lsm7 untagged, GST (Lsm3) and MBP (Lsm6) with TEV sites, TEV treated, copies: 1;1;1;1;1;1;1, label: 5'-FAM"}, "Lsm1Δ56C-7 [6]": {"target": "T3, Lsm1Δ56C-7", "assay": "fluorescence polarization; FP: 100 mM NaCl, 20 mM Tris pH 8.2 (final ~8), 10 mM MgCl2, 1 mM TCEP, 1 mM Na azide, 0.1 mg/mL each tRNA, BSA and heparin; temperature not stated; 1 nM RNA final; Hill fixed at 1", "details": "protein: recombinant, tags: as P2, copies: 1;1;1;1;1;1;1, label: 5'-FAM"}, "Lsm1Δ56C-7 [7]": {"target": "T3, Lsm1Δ56C-7", "assay": "X-ray crystallography; 2.1 Å; FP: 100 mM NaCl, 20 mM Tris pH 8.2 (final ~8), 10 mM MgCl2, 1 mM TCEP, 1 mM Na azide, 0.1 mg/mL each tRNA, BSA and heparin; temperature not stated; 1 nM RNA final; Hill fixed at 1", "details": "protein: recombinant; tags: as P2; copies: 1;1;1;1;1;1;1; single-stranded"}, "Lsm2-8 [8]": {"target": "T2, Lsm2-8", "assay": "X-ray crystallography; 2.3 Å; FP: 100 mM NaCl, 20 mM Tris pH 8.2 (final ~8), 10 mM MgCl2, 1 mM TCEP, 1 mM Na azide, 0.1 mg/mL each tRNA, BSA and heparin; temperature not stated; 1 nM RNA final; Hill fixed at 1", "details": "protein: recombinant; tags: Lsm4 C-term strep-II; Lsm7 C-term His6; GST (Lsm3) and MBP (Lsm6) with TEV sites, TEV treated; copies: 1;1;1;1;1;1;1; single-stranded"}, "[9]": {"details": "5' hairpin, single-stranded 3' end"}}, "data": [{"binder": "B1", "values": [{"measurement": "binding signal", "setting": "Lsm1-7 [1]", "value": "~14", "unit": "fold weaker than N4"}, {"measurement": "binding signal", "setting": "Lsm1-7 (Lsm5 N66A/N68A)", "value": "~7 fold weaker than adenosine-terminated RNA"}]}, {"binder": "B2", "values": [{"measurement": "binding result", "setting": "Lsm2-8 [2]", "value": "binds"}]}, {"binder": "B3", "values": [{"measurement": "Kd", "setting": "Lsm2-8 [3]", "value": 100, "unit": "nM"}]}, {"binder": "B4", "values": [{"measurement": "binding result", "setting": "Lsm1Δ56C-7 [4]", "value": "binds"}]}, {"binder": "B5", "values": [{"measurement": "Kd", "setting": "Lsm1-7 [5]; single-stranded", "value": 189, "unit": "nM"}, {"measurement": "Kd", "setting": "Lsm1Δ56C-7 [6]; single-stranded", "value": 34, "unit": "nM"}]}, {"binder": "B6", "values": [{"measurement": "Kd", "setting": "Lsm2-8 [3]", "value": 26, "unit": "nM"}]}, {"binder": "B7", "values": [{"measurement": "binding result", "setting": "Lsm1Δ56C-7 [7]", "value": "binds"}]}, {"binder": "B8", "values": [{"measurement": "binding result", "setting": "Lsm1-7 [5]; single-stranded", "value": "binds"}]}, {"binder": "B9", "values": [{"measurement": "binding result", "setting": "Lsm1-7 [5]; single-stranded", "value": "binds"}]}, {"binder": "B10", "values": [{"measurement": "Kd", "setting": "Lsm2-8 [3]", "value": 152, "unit": "nM"}]}, {"binder": "B11", "values": [{"measurement": "binding result", "setting": "Lsm2-8 [3]", "value": "binds"}]}, {"binder": "B12", "values": [{"measurement": "binding result", "setting": "Lsm2-8 [8]", "value": "binds"}]}, {"binder": "B13", "values": [{"measurement": "binding result", "setting": "Lsm1Δ56C-7 [6]; single-stranded", "value": "no binding"}]}, {"binder": "B14", "values": [{"measurement": "binding result", "setting": "Lsm1-7 [5]; single-stranded", "value": "binds"}]}, {"binder": "B15", "values": [{"measurement": "Kd", "setting": "Lsm1-7 [5]; [9]", "value": 70, "unit": "nM"}, {"measurement": "Kd", "setting": "Lsm1Δ56C-7 [6]; [9]", "value": 32, "unit": "nM"}]}, {"binder": "B16", "values": [{"measurement": "Kd", "setting": "Lsm1-7 [5]; single-stranded", "value": 29.7, "unit": "nM"}, {"measurement": "Kd", "setting": "Lsm1Δ56C-7 [6]; single-stranded", "value": 13, "unit": "nM"}]}]}
